Assay results as given in US20240270846A1 (published 2024).

B1: CE115HA000 H chain altered form R16Q (antibody, human IgG1, kappa, L234A L235A, N297A, name in Kabat numbering)
heavy: QVQLVESGGGVVQPGQSLRLSCAASGFTFSNAWMHWVRQAPGKGLEWVAQIKAKSNNYATYYAESVKGRFTISRDDSKNSLYLQMNSLKTEDTAVYYCRYVHYGAYYGVDAWGQGTTVTVSSASTKGPSVFPLAPSSKSTSGGTAALGCLVKDYFPEPVTVSWNSGALTSGVHTFPAVLQSSGLYSLSSVVTVPSSSLGTQTYICNVNHKPSNTKVDKKVEPKSCDKTHTCPPCPAPEAAGGPSVFLFPPKPKDTLMISRTPEVTCVVVDVSHEDPEVKFNWYVDGVEVHNAKTKPREEQYASTYRVVSVLTVLHQDWLNGKEYKCKVSNKALPAPIEKTISKAKGQPREPQVYTLPPSRCELTKNQVSLSCAVKGFYPSDIAVEWESNGQPENNYKTTPPVLDSDGSFFLVSKLTVDKSRWQQGNVFSCSVMHEALHNHYTQKSLSLSPDYKDDDDK
chain: EPKSSDKTHTCPPCPAPELLGGPSVFLFPPKPKDTLMISRTPEVTCVVVDVSHEDPEVKFNWYVDGVEVHNAKTKPREEQYNSTYRVVSVLTVLHQDWLNGKEYKCKVSNKALPAPIEKTISKAKGQPREPQVCTLPPSRDELTKNQVSLWCLVKGFYPSDIAVEWESNGQPENNYKTTPPVLDSDGSFFLYSKLTVDKSRWQQGNVFSCSVMHEALHNRYTQKSLSLSP
light: DIVMTQSPLSLPVTPGEPASISCRSSQSLVHSNRNTYLHWYQQKPGQAPRLLIYKVSNRFSGVPDRFSGSGSGTDFTLKISRVEAEDVGVYYCGQGTQVPYTFGQGTKLEIKRTVAAPSVFIFPPSDEQLKSGTASVVCLLNNFYPREAKVQWKVDNALQSGNSQESVTEQDSKDSTYSLSSTLTLSKADYEKHKVYACEVTHQGLSSPVTKSFNRGEC
notes: one-arm antibody
B2: CE115HA000 H chain altered form S30D (antibody, human IgG1, kappa, L234A L235A, N297A, name in Kabat numbering)
heavy: QVQLVESGGGVVQPGRSLRLSCAASGFTFDNAWMHWVRQAPGKGLEWVAQIKAKSNNYATYYAESVKGRFTISRDDSKNSLYLQMNSLKTEDTAVYYCRYVHYGAYYGVDAWGQGTTVTVSSASTKGPSVFPLAPSSKSTSGGTAALGCLVKDYFPEPVTVSWNSGALTSGVHTFPAVLQSSGLYSLSSVVTVPSSSLGTQTYICNVNHKPSNTKVDKKVEPKSCDKTHTCPPCPAPEAAGGPSVFLFPPKPKDTLMISRTPEVTCVVVDVSHEDPEVKFNWYVDGVEVHNAKTKPREEQYASTYRVVSVLTVLHQDWLNGKEYKCKVSNKALPAPIEKTISKAKGQPREPQVYTLPPSRCELTKNQVSLSCAVKGFYPSDIAVEWESNGQPENNYKTTPPVLDSDGSFFLVSKLTVDKSRWQQGNVFSCSVMHEALHNHYTQKSLSLSPDYKDDDDK
chain: EPKSSDKTHTCPPCPAPELLGGPSVFLFPPKPKDTLMISRTPEVTCVVVDVSHEDPEVKFNWYVDGVEVHNAKTKPREEQYNSTYRVVSVLTVLHQDWLNGKEYKCKVSNKALPAPIEKTISKAKGQPREPQVCTLPPSRDELTKNQVSLWCLVKGFYPSDIAVEWESNGQPENNYKTTPPVLDSDGSFFLYSKLTVDKSRWQQGNVFSCSVMHEALHNRYTQKSLSLSP
light: DIVMTQSPLSLPVTPGEPASISCRSSQSLVHSNRNTYLHWYQQKPGQAPRLLIYKVSNRFSGVPDRFSGSGSGTDFTLKISRVEAEDVGVYYCGQGTQVPYTFGQGTKLEIKRTVAAPSVFIFPPSDEQLKSGTASVVCLLNNFYPREAKVQWKVDNALQSGNSQESVTEQDSKDSTYSLSSTLTLSKADYEKHKVYACEVTHQGLSSPVTKSFNRGEC
notes: one-arm antibody
B3: CE115HA000 H chain altered form R19T (antibody, human IgG1, kappa, L234A L235A, N297A, name in Kabat numbering)
heavy: QVQLVESGGGVVQPGRSLTLSCAASGFTFSNAWMHWVRQAPGKGLEWVAQIKAKSNNYATYYAESVKGRFTISRDDSKNSLYLQMNSLKTEDTAVYYCRYVHYGAYYGVDAWGQGTTVTVSSASTKGPSVFPLAPSSKSTSGGTAALGCLVKDYFPEPVTVSWNSGALTSGVHTFPAVLQSSGLYSLSSVVTVPSSSLGTQTYICNVNHKPSNTKVDKKVEPKSCDKTHTCPPCPAPEAAGGPSVFLFPPKPKDTLMISRTPEVTCVVVDVSHEDPEVKFNWYVDGVEVHNAKTKPREEQYASTYRVVSVLTVLHQDWLNGKEYKCKVSNKALPAPIEKTISKAKGQPREPQVYTLPPSRCELTKNQVSLSCAVKGFYPSDIAVEWESNGQPENNYKTTPPVLDSDGSFFLVSKLTVDKSRWQQGNVFSCSVMHEALHNHYTQKSLSLSPDYKDDDDK
chain: EPKSSDKTHTCPPCPAPELLGGPSVFLFPPKPKDTLMISRTPEVTCVVVDVSHEDPEVKFNWYVDGVEVHNAKTKPREEQYNSTYRVVSVLTVLHQDWLNGKEYKCKVSNKALPAPIEKTISKAKGQPREPQVCTLPPSRDELTKNQVSLWCLVKGFYPSDIAVEWESNGQPENNYKTTPPVLDSDGSFFLYSKLTVDKSRWQQGNVFSCSVMHEALHNRYTQKSLSLSP
light: DIVMTQSPLSLPVTPGEPASISCRSSQSLVHSNRNTYLHWYQQKPGQAPRLLIYKVSNRFSGVPDRFSGSGSGTDFTLKISRVEAEDVGVYYCGQGTQVPYTFGQGTKLEIKRTVAAPSVFIFPPSDEQLKSGTASVVCLLNNFYPREAKVQWKVDNALQSGNSQESVTEQDSKDSTYSLSSTLTLSKADYEKHKVYACEVTHQGLSSPVTKSFNRGEC
notes: one-arm antibody
B4: CE115HA000 H chain altered form S30G (antibody, human IgG1, kappa, L234A L235A, N297A, name in Kabat numbering)
heavy: QVQLVESGGGVVQPGRSLRLSCAASGFTFGNAWMHWVRQAPGKGLEWVAQIKAKSNNYATYYAESVKGRFTISRDDSKNSLYLQMNSLKTEDTAVYYCRYVHYGAYYGVDAWGQGTTVTVSSASTKGPSVFPLAPSSKSTSGGTAALGCLVKDYFPEPVTVSWNSGALTSGVHTFPAVLQSSGLYSLSSVVTVPSSSLGTQTYICNVNHKPSNTKVDKKVEPKSCDKTHTCPPCPAPEAAGGPSVFLFPPKPKDTLMISRTPEVTCVVVDVSHEDPEVKFNWYVDGVEVHNAKTKPREEQYASTYRVVSVLTVLHQDWLNGKEYKCKVSNKALPAPIEKTISKAKGQPREPQVYTLPPSRCELTKNQVSLSCAVKGFYPSDIAVEWESNGQPENNYKTTPPVLDSDGSFFLVSKLTVDKSRWQQGNVFSCSVMHEALHNHYTQKSLSLSPDYKDDDDK
chain: EPKSSDKTHTCPPCPAPELLGGPSVFLFPPKPKDTLMISRTPEVTCVVVDVSHEDPEVKFNWYVDGVEVHNAKTKPREEQYNSTYRVVSVLTVLHQDWLNGKEYKCKVSNKALPAPIEKTISKAKGQPREPQVCTLPPSRDELTKNQVSLWCLVKGFYPSDIAVEWESNGQPENNYKTTPPVLDSDGSFFLYSKLTVDKSRWQQGNVFSCSVMHEALHNRYTQKSLSLSP
light: DIVMTQSPLSLPVTPGEPASISCRSSQSLVHSNRNTYLHWYQQKPGQAPRLLIYKVSNRFSGVPDRFSGSGSGTDFTLKISRVEAEDVGVYYCGQGTQVPYTFGQGTKLEIKRTVAAPSVFIFPPSDEQLKSGTASVVCLLNNFYPREAKVQWKVDNALQSGNSQESVTEQDSKDSTYSLSSTLTLSKADYEKHKVYACEVTHQGLSSPVTKSFNRGEC
notes: one-arm antibody

The binders below were run against T1, CD3 epsilon homodimer protein (UniProt P07766 23-126) (assay: SPR Biacore T200, CD3 epsilon homodimer on chip, antibody as analyte;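 further: homodimer amine-coupled to a CM4 sensor chip, run at 25 °C in HBS-EP+ buffer, with kinetic parameters derived in Biacore T200 Evaluation Software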).
T1 construct: also called CD3 (CD3 epsilon)
T1 sequence (P07766 23-126): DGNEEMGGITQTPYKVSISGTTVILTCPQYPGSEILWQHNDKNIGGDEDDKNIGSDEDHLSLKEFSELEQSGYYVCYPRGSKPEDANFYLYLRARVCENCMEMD

Compared with B1, B2 is lower in “KD ratio (KD of CE115HA000 / KD of altered form)” value: 0.87 for the first, 0.79 for the second.

Going from B3 to B4, the “KD ratio (KD of CE115HA000 / KD of altered form)” value rises from 0.81 to 0.93.
